Measurements: the RNAGym collection of RNA variant scans (doi:10.1073/pnas.2313332121)

B1: TPR t1 (parent)
chain: GACCAAUCUGCCCUCAGAGCUCGAGAACAUCUUCGGAUGCAGAGGAGGCAGGCUUCGGUGGCGCGAUAGCGCCAACGUCCUCAACCUCCAAUGCAUCCCACCACAUGAUGAUGCCUGAAGAGCCUUGGUUUUUUG

Variants of: B1
Assay: polymerase ribozyme fitness, log enrichment relative to wild type (log ratio); higher = more active; in vitro selection for triplet polymerase activity
How it was run: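 One round of in vitro selection, in triplicate, was applied to PCR-built, transcribed mutant libraries of each subunit of a heterodimeric triplet polymerase ribozyme. The steps were annealing with a biotinylated primer, partner subunit and triplets, incubation frozen at −7 °C, gel excision of extended constructs, streptavidin-bead capture and RT-PCR. Fitness is the logarithm, base 2, of genotype enrichment over wild-type enrichment from inverse-variance-weighted replicate averages of Illumina-sequenced inputs and outputs, keeping genotypes with ≥10 input reads and ≥1 read per output.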

| Variant | polymerase ribozyme fitness (log ratio) |
| --- | --- |
| C28U U106A | -0.471 |
| A29C G61A A75U | -1.75 |
| A29G G47A U55A C56G | -2.62 |
| A29C A41U C64U | -3.54 |
| U32C G117U | -2.41 |
| U33A G52U C115A | -4.73 |
| C28A U54C U106C | -5.05 |
| A29G A37G A84G G110U A121G | -3.06 |
| A29C C102A U109G | -2.1 |
| C31U U96G | -5.37 |
| C31U G71U C124G | -3.59 |
| U32G C56U U109A C124U | -6.14 |
| C28U G61C | -4.7 |
| C28U G61A | -1.12 |
| A29C G57A C62U | -3.66 |
| A29G C56U | -1.17 |
| A29U C49G C73U C76U C94A | -3.55 |
| U30C C40U G120C | -2.45 |
| A29C G61U C70U A75G U78G | -3.77 |
| U30A A111U | -4.14 |
| A29G C115U U126G | -3.15 |
| C28G C56A C73G U106C | -4.85 |
| A29G U87A | -1.67 |
| C31U G69U C98U A119G | -3.7 |

| Variant | polymerase ribozyme fitness (log ratio) |
| --- | --- |
| A29C C62G | -4.52 |
| C31U A68G | -6.34 |
| C28U C64U G93U | -3.83 |
| C28U C62U G69U | -1.04 |
| A29G A105C | -7.42 |
| A29U C53A | -1.37 |
| A29U C53U C56U G69U G93C | -3.98 |
| C28U G63C | -3.08 |
| C31G G39U C72A U106A G120U | -6.88 |
| A29G U32C A50U C73U | -2.14 |
| U33A G58A | -5.07 |
| C31G G36U G44A A74U A108U U112G | -7.74 |
| C31G U33A G48U C49U C72G A108U G120U | -8.14 |
| A29C A41G | -2.15 |
| A29G C73U C114A | -1.97 |
| C28U G52U G120C | -2.81 |
| A29G C101G | -4.66 |
| U32G A119U | -6.21 |
| C31G C123U | -7.18 |
| C28A G135U | -4.58 |
| C31U G60U | -4.38 |
| C28U C34U C73G C102U G110A | -0.0797 |
| A29U G42C G69U A119U | -2.46 |
| A29G C64U C104A U106A U112C | -0.729 |

| Variant | polymerase ribozyme fitness (log ratio) |
| --- | --- |
| U33A C104U U112A | -3.5 |
| C28G G93A | -3.77 |
| A29U C72U C102U | -5.4 |
| U32A U33C G77C C102G G107A A121G | -7.93 |
| A29G A90C U92C | -3.09 |
| A29G C31G G63A A100U A121C | -7.06 |
| C28G C62G | -4.58 |
| U30A U112C | -2.73 |
| U30C C70U | -2.92 |
| A29C C49U C72U | -4.03 |
| C28U G39A | -2.12 |
| U33A A50U G93C A95G C101G | -7.02 |
| A29U G48A G63C A111C | -2.36 |
| C31U G39A G69U G120U | -3.44 |
| C28U G44U C49U G63C G110A | -2.74 |
| U33A A46U C97A | -6.45 |
| A29U A46U U106A | -2.03 |
| C28U G39U A111C | -6.59 |
| A29G G61U C85A C102U | -5.28 |
| C28U G42C | -3.36 |
| U30A G48C C124A | -5.2 |
| C28U C101G | -5.15 |
| C28U C82A C94A U125G | -4.37 |
| A29G A37G C40U G61C G127U | -4.48 |

| Variant | polymerase ribozyme fitness (log ratio) |
| --- | --- |
| A29G G69A A75U C104U U112G | -4.35 |
| C31A G44U G69A A100C U109G G135U | -6.04 |
| U33A C53A C62U | -5.53 |
| A29C A37G | -2.11 |
| U30C C62U U78C | -3.36 |
| C31U C72A | -4.11 |
| C31U C72U | -4.57 |
| A29U U109G G122A | -1.47 |
| C28U C49G A91U U106A | -5.37 |
| C31U U78C | -5.28 |
| C31U C49A C123U C124U | -4.12 |
| U32C C85G | -2.56 |
| U32G C70U | -7.16 |
| A29G C40U | -2.17 |
| A29G A66G | -1.88 |
| A29G C40A A41U U92G | -4.59 |
| A29U G52C C73G U129A | -4.18 |
| C31U U81A C88G A95U U112A | -6.66 |
| A29G U32A U55C | -5.1 |
| C28U U112A G122A U129A | -6.54 |
| A29G C49A | -1.64 |
| U32A C88G U125A | -5.98 |
| U32C C62U G77C A100C U106G | -3.33 |
| U32C A74G G128C | -2.08 |

| Variant | polymerase ribozyme fitness (log ratio) |
| --- | --- |
| A29C C53G A111U | -1.63 |
| U30C A50C | -2.91 |
| C28G C34G G42U A46G C56A C104A A111G U131G | -5.4 |
| A29G A37G C88U A111C | -0.788 |
| U32C C56U | 0.1 |
| C28U G69U | -0.614 |
| A29G G71A | -1.75 |
| A29U G45A G47U | -4.18 |
| A29U A83U C86A C114A A118U | -3.87 |
| C28U G71U | -2.6 |
| A29U G93A | -2.13 |
| C28A U96A C97A G110A C124A | -3.05 |
| A29U C53U C72G A83U U96A | -4.12 |
| U32A C40U U106A | -6.43 |
| A29U C94A C102G U109C U130C | -6.22 |
| C31U G44C G69U C115U U130A | -4.82 |
| A29U U126C | -2.33 |
| C31U A37G C115A | -4.73 |
| A29G C97A | -5.53 |
| A29U G48C C53U | -3.4 |
| U33A G120U | -5.15 |
| U33A C64A G69C | -5.43 |
| C28G C62G C98U C124U | -5.55 |
| A29G U130G | -1.15 |

| Variant | polymerase ribozyme fitness (log ratio) |
| --- | --- |
| A29G A43C | -3.7 |
| C28U U112C U116A | -1.82 |
| U32C G42A G69U | -0.00577 |
| C31G U109G C114G | -6.93 |
| A29G C62A | -2.33 |
| U33A C62G C73A U78G | -5.54 |
| C31U C79G C124G | -5.57 |
| A29G G69C G120A | -2.54 |
| C28U A83C | -2.54 |
| U32C G63U G113U | -4.99 |
| A29G C49U A119U G120A C123A | -2.51 |
| U30C A41G | -3.33 |
| C28G U54G C97U U130A U131C | -3.57 |
| U33A C56A | -4.57 |
| A29U G58A U106A | -1.28 |
| A29U A46C | -3.27 |
| A29U A46C G48A A84C | -3.31 |
| A29U G61A C73U | -1.74 |
| A29U A41C | -2 |
| A29U C53A U129G | -2.03 |
| U32C A119G | 0.645 |
| C31A C72U C123A U125G U129A U133G | -6.38 |
| U32C C40A | -0.464 |
| A29C A41C C56G U59A G69U C82U A121C G135C | -6.04 |

| Variant | polymerase ribozyme fitness (log ratio) |
| --- | --- |
| A29C G39A A50U G52A U112C | -5.09 |
| C28G C53U U67G C73G C98A C102A A111U C114G | -6 |
| C31U C82U | -5.12 |
| C31G C62U C114G G127U | -6.54 |
| U32A A46C C64U U78G | -4.98 |
| U30C C56U | -2.08 |
| C28G C53U G93A | -5.35 |
| C28U G52C C56G G120A | -2.52 |
| U30C C40U C53G C56G C62U C76A | -5.08 |
| A29U C99U U106A | -4.1 |
| C31U A37U | -4.07 |
| C28G G48U | -3.56 |
| A29U C70G | -3.31 |
| C31A A121U | -3.46 |
| U32G A37G A74G A111U U133C | -5.3 |
| U33A C72G | -5.17 |
| A29U A46G C115G | -2.96 |
| A29G U87A C104G A111U | -4.03 |
| A29G C79G | -2.5 |
| U30G G48A C49U C62U C85A A121G | -6.22 |
| C28U G135U | -2.44 |
| U32A G48A C62U C97U A100U | -7.37 |
| C31U G36U G60C C73U C123U | -4.81 |
